{"source": "patent US20240352088A1", "about": "(AICHI PREFECTURE, published 2024)", "binders": {"B1": {"name": "chimeric cytokine receptor GP130-IL6R-ca7R (receptor)", "chain": "ELLDPCGYISPESPVVQLHSNFTAVCVLKEKCMDYFHVNANYIVWKTNHFTIPKEQYTIINRTASSVTFTDIASLNIQLTCNILTFGQLEQNVYGITIISGLPPEKPKNLSCIVNEGKKMRCEWDGGRETHLETNFTLKSEWATHKFADCKAKRDTPTSCTVDYSTVYFVNIEVWVEAENALGKVTSDHINFDPVYKVKPNPPHNLSVINSEELSSILKLTWTNPSIKSVIILKYNIQYRTKDASTWSQIPPEDTASTRSSFTVQDLKPFTEYVFRIRCMKEDGKGYWSDWSEEASGITYEDRPGSAGSAAGSGEFVDVPPEEPQLSCFRKSPLSNVVCEWGPRSTPSLTTKAVLLVRKFQNSPAEDFQEPCQYSQESQKFSCQLAVPEGDSSFYIVSMCVASSVGSKFSKTQTFQGCGILQPDPPANITVTAVARNPRWLSVTWQDPHSWNSSFYRLRFELRYRAERSKTFTTWMVKDLQHHCVIHDAWSGLRHVVQLRAQEEFGQGEWSEWSPEAMGTPWTESRSPPAENEVSTPMQALTTNKDDDNILFRDSANATSLPVQDSSSVPLPAAANNSSGEMDPILLPPCLTISILSFFSVALLVILACVLWKKRIKPIVWPSLPDHKKTLEHLCKKPRKNLNVSFNPESFLDCQIHRVDDIQARDEVEGFLQDTFPQQLEESEKQRLGGDVQSPNCPSEDVVITPESFGRDSSLTCLAGNVSACDAPILSSSRSLDCRESGKNGPHVYQDLLLSLGTTNSTLPPPFSLQSGILTLNPVAQGQPILTSLGSNQEEAYVTMSSFYQNQ", "notes": "Expressed on the surface of human CAR-T cells; also called GP130-IL6R-ca7R(WT)"}}, "biological_target": "T1, IL-6 (interleukin-6) (human, UniProt P05231 30-212)", "T1 construct": "also called recombinant IL-6; human IL-6", "test": "plasma IL-6 by ELISA 1, 2 and 4 h after i.v. human IL-6 (2 µg) in NSG mice given the CAR-T cells", "description": "An NALM6 cell line stably transduced with EGFP-P2A-Luc2 (GL) (referred to as a “NALM6-GL cell line”) was administered at 2.5×10⁶ cells/mouse into the tail vein of the NSG mice (Charles River Laboratories Japan, JAX Mice Stock No: 005557). After 10 days, control cells transduced with only a CAR gene or GP130-IL6R-ca7R-transduced CAR-T cells were administered into the tail vein at 3×10⁶ cells/mouse. After another 7 days, 2 μg of human IL-6 was intravenously administered, and blood was collected at 1 hour, 2 hours, and 4 hours after the injection to measure the concentration of IL-6 in plasma by ELISA. Note that the control cells or GP130-IL6R-ca7R-transduced CAR-T cells used for the administration into the NSG mice were stimulated again with the NALM6-GL cell line on day 7 of culture and expanded, and cultured for 11 days."}
{"binder": "B1", "values": [{"measurement": "binding result", "result": "binds"}]}
